Measurements taken from the nanobody polyreactivity screen of Harvey et al. (2022).

Assay: yeast display, Sf9 membrane polyspecificity reagent, FACS + sequencing; frameworks hold sequencing errors
Outline: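 Galactose-induced (36–48 hours) yeast carrying a synthetic nanobody display library were exposed to 10% biotinylated, detergent-solubilized Sf9 membrane reagent at 4 °C for 1 hour. FACS followed streptavidin microbead enrichment, using low and high (top ~1%) gates for expression (anti-HA) and reagent binding (streptavidin). Colony PCR, MiSeq 2 × 250 sequencing and CDR-length filtering followed. Labels for polyreactivity reflect the gate of origin.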

Row | Sequence | polyreactivity (PSR sort gate)
1 | QVQLVESGGCLVQAGGSLRLSCSSSGFIFFYNMGWYRQAPGKERDLVADISTGGSTNYADSVKGRFTISRDNAKNTVYLQMNSLKQEDTAVYYCAAVYYNVYQYEPWYDYWGQGTQVTVSS | low polyreactivity
2 | QVQLVESGGCLVQAGGSLRLSSAASGSIFHAYAMGWYRQSPGKESELVAAITIDGSTNYADSVKGRFTISRDNAKNTVYLQMNSLKPEDTAVYYCNKDGAYDAYSYDYWGQGTQVTVSS | low polyreactivity
3 | QVQLVESGGCLVQAGGSRRLSCDASVRIVPVYAMGWYRQAHGNERELVAAISQSGGSTYADSVKGRFTISRDNAKNTVYLQMNSLKPEDTAVYYCAARYWKWRPAYEYWGPGTQVTVSS | high polyreactivity
4 | QVQLVESGGCLVQAGGTLRLSCAASGSILNSYALGWYRQAPGKERELVAAIDNRGGSTHYADSVKGRFTISRDNAKNTVYLQMNSLKPEDTAVYYCAKRFYGSVGYWRYYYWGQGTQVTVSS | low polyreactivity
5 | QVQLVESGGCLVQAGVSLRLSCAASGSIFSPYAMGWYRQAPGKEREFVASITFNGGSTYYADSVKGRFTISRDNAKNTVYLQMNSLKPEDTAVYYCAASYWYDTYWLMDYWGQGPQVTVSS | high polyreactivity
6 | QVQLVESGGCLVQARGSLRLSCAASGSTFGTYAMGWYRQPPGKERELVAAIRWSGVSTYYADSVKGRFTISRDNAKNTVYLEMNSLKPEDTAVYYCAVALWVRGTYIYEYWGQGSQVTVSS | high polyreactivity
7 | QVQLVESGGCLVQARGSLRLSCAASGSTFTYNTMGWYRQAPGKESELVAGITKSGGSTYYADSVKGRFTISRDKAKNTVYLQMNSLKPEDTAVYYCATSTSRRYGSRHNYWGQGTQVTVSS | high polyreactivity
8 | QVQLVESGGCLVQEGGSLRLSCAASGSIFHDYIMGWYRQAPGKEMELVAAMSSGGSTYYADSVKGRFTISRDNAKNTVYLQMNSLKPEDTEVYYCAAKSRSQVYPHYYWGQGTQVTVSS | low polyreactivity
9 | QVQLVESGGCLVQEGGSLRLSCDASGRTFLTYAMGWYRQAPGKERELVAAITDGDSTNYADSVKGRFTISRDNAKNNVYLQMNSLKPEDTAVYYCNADSLAYRYYYWGQGTQVTVSS | high polyreactivity
10 | QVQLVESGGCLVQSGGSLRLSCAASGIILYYYAMGWYRQAPGKERELVAAISSGGNTYYADSVKGRFTISRDNAKNTVYLQMNSLKPEDPAVYFCASGTVIGGEYDYWGQGTQVTVSS | low polyreactivity
11 | QVQLVESGGDLVQAGGSLRLSCAASGFTLTNYAMGWYRQATGKARELVAAITSSGGSTYYADSVKGRFTISRDNAKNTVYFQMNSLKPEDTAVYYCAAQGSRHFRWRYDYWGQGTQVTVSS | high polyreactivity
12 | QVQLVESGGGFDQAGGSLRLSCAACGSIFWSNAMGWYRQAPGKERELVAAISSGGSTYADSVKGRLTISRDNAKNTVYLQMNSLKPEDNAVYYCNADVLYGDCYRGGYWGQGTQVTVSS | low polyreactivity
13 | QVQLVESGGGFVHAGGSLRLSCAASGLIFGKYAMGWYRQAPGKERELVAAITSSGGGTYYADSVKGRFTISRDNAKNTVSLQMNSVKADDTAVYYCATGPDPKYDYRGQGTQVTVSS | high polyreactivity
14 | QVQLVESGGGFVQAGGSHRLSCASSGRTFVLYTMGLYRQAPGKERELVAVGSTYYADSVKGRFTISRDNAKNTVYLQMNSLKPEDTALYYCNKPGNYLWRRSWDFYYWGQGTQVTVST | high polyreactivity
15 | QVQLVESGGGFVQAGGSLRLICAAYRSIFSLYAMGWYRQAPGKERELVAHISSDGSTNYADSVKGRFTISRDNAKNTVYLQMNSLKPEDTAVYYCAKKPSSARYFTIGFDYWGQGTQVTVSS | low polyreactivity
16 | QVQLVESGGGFVQAGGSLRLSCAASGFTFVGYAMGWYRQAPGKERELVAAITRRGGSTYYADSVKGRFTISRDNAKNTVYLQMNSLKPEDTAVYYCNKASYRISVPRYDYWGQGTQVTVSS | high polyreactivity
17 | QVQLVESGGGFVQAGGSLRLSCAASGGIFGSYAIGWYRQAPGKERELVADITQSGGRTRNADSVKGRFTSSRDNAKNTVYLQKNSLKPEDTALYYCNAQDVDSGDDYDYWGQGTQVTVSS | low polyreactivity
18 | QVQLVESGGGFVQAGGSLRLSCAASGLIFGRYGLGWYRQAPGKAREFVAAITQSGGATYYADSVKGRFTISRDNAKNTVYLQMNSLKPEDTAVYYCNAPIAYWRVHDKYGYWGQGTQLTVSS | low polyreactivity
19 | QVQLVESGGGFVQAGGSLRLSCAASGLTFYGYAMGWYRQEPGKERELVAAISGSGARTYYADSVKGRFTISRDNAKNTVYFQMNSLKPEDTAVYYCAVRGSWYSEHNYWGQGTQVTVSS | high polyreactivity
20 | QVQLVESGGGFVQAGGSLRLSCAASGRIFRYYAMGWSRQAPGKERELVAAINSGGSTKYADSVKGRFTISRDNAKNTVYFQMNSLNPEDTAVYYCNKDHAFSRYWYGGFDYWGQGTQVTVSS | high polyreactivity
21 | QVQLVESGGGFVQAGGSLRLSCAASGRIRFYAMGWYRQAPGKERELVAAISSSGGSTYYADSVKGSFTISRDNAKNTVYLQMNSLKPEDTAVYYCAAAWYYLGTRAQLYDYWGQGTQVTVSS | low polyreactivity
22 | QVQLVESGGGFVQAGGSLRLSCAASGRTFPRYAMGWYRQAPGKERELVAAITRGGGTNYADSVKGRFTISRDNAKNTVYLQMNSLKPEDTAVYYCNRALLYRGYKFDYWGQGTHVTVSS | high polyreactivity

Row | Sequence | polyreactivity (PSR sort gate)
23 | QVQLVESGGGFVQAGGSLRLSCAASGRTFRWNAMGWYRQAPGKERELVAAISSGGSTYYADSVKGRFTISRDNAKNTVYLQMNSLKPEDTAVYYCAKTSFKYRWSYPVISMDYWGQATQVTVSS | high polyreactivity
24 | QVQLVESGGGFVQAGGSLRLSCAASGSIFAYYVMGWYRPAPGTERELGAAITSVGSTNYADSVKGRFTISRDNAKNTVYLQMNSLKPQDTAVYYCADDQYQARYYYWGQGTQVTVSS | low polyreactivity
25 | QVQLVESGGGFVQAGGSLRLSCAASGSIFKRYAMGWYRQAPGKEWELVARISRRGGTYYADSVKGRFTISRDNAKNTVYLQINSLKPDDTAVYYCNANVIFADNNDRDYWGQGTQVTVSS | low polyreactivity
26 | QVQLVESGGGFVQAGGSLRLSCAASGSIFVTNAMGWYRQAPGKDRELVAAISVSGGSTYYADSVKGRFTISRDNAKNTVYLQMNSLKPEDTAVYYCNTVRSPPGHDYWGLGTQVTVSS | low polyreactivity
27 | QVQLVESGGGFVQAGGSLRLSCAASGSTFHDNAMGWYRQAPGKERELVAGISISGVSTFYADSVKGRFTISRDYAKNTVYLQMNSLKPEDTAVYYCTADDVSAYQRFDYWGQGTQVTVSS | low polyreactivity
28 | QVQLVESGGGFVQAGGSLRLSCAASGSTFYHNAMGWYRPAPGKERELVAAISSGGSTHYADSVKGRFTISRDNEKNTVYLQKNILKPEDTAVYYCAKARPGFLYDHWGQGTQVTVSS | high polyreactivity
29 | QVQLVESGGGFVQAGGSLRLSCASSGRTFHYYAMGWYRQAPGKERELVAAISFDGGTTYYADSVKGRFTISRDNAKNTVYLHMNSPKPEDTAVYYCNALRYRDRVGYNYWGQGTQVTVSS | high polyreactivity
30 | QVQLVESGGGFVQAGGSLRLSCVPSGRTYEPYAMGWYRQAPGKERELVAAIRWSGDRTYYADSVKGRFTISRDFAKITVYLHMISLKPEDTAVYYCAADYRARRWGMDYWGQGTQVTVSS | high polyreactivity
31 | QVQLVESGGGFVQAGGSLRLSGAASGSIFYCNAMGWYRQAPGKDRELVAAISYSGGSTYYADSVKGRFTLSRDTAKNTVYLQMNSLKPEDTAVSDGAAGPITLRYLTIYYTFDYWGQGTQVTVSS | high polyreactivity
32 | QVQLVESGGGFVQAGGSLSLSCAASGSTFIRYVMGWYRQAPGKERELVASITISVGSTYADSVKGRFTISRDNAKNTVYLQMNRMNPEDTAVYYCAASTLKDIYLWFRVDYWGQGTQVTVSS | low polyreactivity
33 | QVQLVESGGGIGQAGGSLRLSCAASGFTFSRYTMAWFRRAPGKERELVAAINRRGGSTYYADSVKGRFTISRDNAKNTVYLQMNCEKPEDTAVYYCAATYTVRSGNGIANDYWGQGTQVTVSS | high polyreactivity
34 | QVQLVESGGGILQAGGSLRLSCAASGSIFGGNAMGWYRQAPGKERELVAAITSTVSTNYADSVKGRFTISRDNAKNTVYLQMNSLKPEDTAVYYCANDTSNVEGDYWGQGTQVTVSS | low polyreactivity
35 | QVQLVESGGGILQARGSRPLICAASGSNLSYNAMGWYRQAPGKEREFVATITGTGGSTRYADSVKGRFTFSRDNAKNTVYLQMNSLNPEDTAVYYCATAAWWYYRIYHEFGFLGQGTQVTVSS | high polyreactivity
36 | QVQLVESGGGIVEAGVSLRISCAASGSIFTKNAMVWYRPAPGKARELVAAISSGGSTYYADSEKGRFSISRDNAKNTVYLQMNSLKPEDTAVYYCARGASFYLKFYYWGQGTQVTVSS | high polyreactivity
37 | QVQLVESGGGIVQAGCSLRLSCAPSGSTFKNNAMGWDRQAPGKEREFVASIYKRGGSTYYADSVKGRFTISRDNAKNTVYLQKKSLTPEDTAVYYCAKTYWSYGWSHGDYGEVDYWGQGTQVNVSS | high polyreactivity
38 | QVQLVESGGGIVQAGCSLRLSSAASGFTFYGYAMGWYRQAPGKERELVAAMSWDGSSTYYADSVKGRFTISRDNAKNTVYLPMNSLKPEDTAVYYCAREYYYGYYYPIQSDYWGQGTQVTVSS | low polyreactivity
39 | QVQLVESGGGIVQAGGILRLSCAASGRISVFNDMGWYRQAPGKERELVAAITSGGSTKYADSVKGRFTISRDNAKNTVYLQMNSLKPEDTAVYYCASLYQFHGKIWDGDYWGQGTQVNVSS | low polyreactivity
40 | QVQLVESGGGIVQAGGILRLSCAASGRNLHGYTMGWYRQAPGKERELVATISSIGGSTYYADSVKGRFTISRDNAKNTVYLQMNSLKPEDTAVYYCAATRGRRYQSYYWGQGTQVTVSS | low polyreactivity
41 | QVQLVESGGGIVQAGGILRLSSAASGRTFYSYTMGWSRQEPGKERELVAAINRGGSTYYADSVKGRFTISRDKAKNTVYLQMNSLKPEDTEVYYCAVGYAHSSNRRYYYKKTHGYWGQGTQVTVSS | low polyreactivity
42 | QVQLVESGGGIVQAGGRLRLSCAASGFPSTLMLWDGIDRRLGKKGSWLPIISYNGGSTYYADSVKGRFTISRDNANNTVYLQMNSLKPVDTAVYYCYTAVGEYESDYWGQGTQVTVSS | low polyreactivity
43 | QVQLVESGGGIVQAGGRLRLSCAASGSIFYYYAKGWYRQAPGTERELVASINSGVSTYYADSVKGRFTNSRDNAKNTVYLQMNSLKPVDTAVYYCAAPGHNLYGSWFSWTPDTYDYWGQGNQVTVSS | low polyreactivity
